The values below come from article PMC6363992.

The target of experiment [1] is BTV1 VP5 H384-6A triple mutant, S-tagged recombinant protein (Bluetongue virus serotype 1 (BTV1)). Briefly: SDS-PAGE without reduction and heating, Western blot. (In general: A western blot detects proteins with antibodies after separation by electrophoresis.)
The target of experiment [2] is BTV1 VP5 H385A mutant, S-tagged recombinant protein (Bluetongue virus serotype 1 (BTV1)). Described as above.
Experiment [3] has as its target BTV1 VP5 anchoring domain (ANC) polypeptide, His-tagged (Bluetongue virus serotype 1 (BTV1)). Put plainly: SDS-PAGE without reduction and heating, Coomassie staining.
Experiment [4] concerns the target BTV1 VP5, wild-type, S-tagged recombinant protein (Bluetongue virus serotype 1 (BTV1)). Briefly: SDS-PAGE without reduction and heating, Western blot.

On to “BTV1 VP5 H384-6A triple mutant, S-tagged recombinant protein (natural protein)”, for which, in experiment [1], the percent trimer is 25% and the stoichiometry N was found to be 3.

On to “BTV1 VP5 H385A mutant, S-tagged recombinant protein (natural protein)”, for which, in experiment [2], the percent trimer was found to be 25% and the stoichiometry N came to 3.

For “BTV1 VP5 anchoring domain (ANC) polypeptide, His-tagged (domain or fragment)”, in experiment [3], the percent trimer worked out at 30% and the stoichiometry N came to 3.

“BTV1 VP5, wild-type, S-tagged recombinant protein (natural protein)”: in experiment [4], the percent trimer worked out at 25% and the stoichiometry N is 3.

What is called stoichiometry N is a count of units in the complex or per binding partner.
